Bridge positions count the residues as written; N and C are the ends. Square brackets hold non-standard residues; d marks the D form. Side chains are listed from the residue outwards. * marks the point of attachment. Biotin = O=C1N[C@H]2[C@H](CS[C@H]2CCCCC(=O)*)N1; pGlu = O=C1CC[C@@H](C(=O)O)N1; Nle = CCCC[C@H](N)C(=O)O; PEG = not defined here
Assays:
[1] = biological target: T1, chemokine (C-C motif) receptor 7 (CCR7) (human, UniProt P32248 25-378); assay: cell-based or functional assay
T1 sequence (looked up): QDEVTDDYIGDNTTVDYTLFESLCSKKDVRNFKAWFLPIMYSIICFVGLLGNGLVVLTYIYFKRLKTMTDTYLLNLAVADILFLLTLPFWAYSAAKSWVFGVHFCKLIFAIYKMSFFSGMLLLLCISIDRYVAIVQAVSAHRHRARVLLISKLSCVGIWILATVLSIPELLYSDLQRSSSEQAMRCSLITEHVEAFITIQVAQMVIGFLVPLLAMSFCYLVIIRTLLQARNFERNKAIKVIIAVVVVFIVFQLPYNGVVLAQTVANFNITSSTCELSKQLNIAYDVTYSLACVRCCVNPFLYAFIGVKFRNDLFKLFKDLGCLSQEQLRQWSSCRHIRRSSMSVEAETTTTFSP

[2] = biological target: T2, chemokine (C-C motif) receptor 3 (CCR3) (human, UniProt P51677 1-355); assay: flow cytometry; eotaxin binding compared with anti-CCR3 staining of neutrophils/eosinophils
T2 construct: whole, on cells; also called hCCR3
T2 sequence (looked up): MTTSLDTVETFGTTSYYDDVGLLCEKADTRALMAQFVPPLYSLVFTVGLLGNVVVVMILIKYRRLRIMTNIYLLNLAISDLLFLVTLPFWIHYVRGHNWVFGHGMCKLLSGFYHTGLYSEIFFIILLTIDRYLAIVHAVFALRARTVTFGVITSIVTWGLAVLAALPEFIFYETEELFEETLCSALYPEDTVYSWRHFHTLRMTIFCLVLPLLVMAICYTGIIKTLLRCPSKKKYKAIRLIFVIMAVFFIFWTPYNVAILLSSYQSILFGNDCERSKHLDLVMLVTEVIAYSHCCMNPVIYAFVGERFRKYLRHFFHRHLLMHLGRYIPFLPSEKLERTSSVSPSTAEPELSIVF

[3] = biological target: T3, chemokine (C-C motif) receptor 9 (CCR9) (human, UniProt P51686 1-369); assay: cell-based or functional assay
T3 sequence (looked up): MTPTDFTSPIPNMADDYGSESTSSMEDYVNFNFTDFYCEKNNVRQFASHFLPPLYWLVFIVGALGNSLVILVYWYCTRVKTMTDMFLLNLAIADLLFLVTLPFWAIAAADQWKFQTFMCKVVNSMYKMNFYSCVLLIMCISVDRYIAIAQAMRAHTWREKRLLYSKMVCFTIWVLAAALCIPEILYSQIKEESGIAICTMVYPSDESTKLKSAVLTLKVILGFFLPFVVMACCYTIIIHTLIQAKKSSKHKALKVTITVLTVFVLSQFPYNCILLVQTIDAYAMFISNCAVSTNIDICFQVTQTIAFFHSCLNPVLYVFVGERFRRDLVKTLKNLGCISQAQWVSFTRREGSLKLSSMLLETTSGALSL

[4] = biological target: T4, chemokine (C-C motif) receptor 4 (CCR4) (human, UniProt P51679 1-360); assay: cell-based or functional assay
T4 sequence (looked up): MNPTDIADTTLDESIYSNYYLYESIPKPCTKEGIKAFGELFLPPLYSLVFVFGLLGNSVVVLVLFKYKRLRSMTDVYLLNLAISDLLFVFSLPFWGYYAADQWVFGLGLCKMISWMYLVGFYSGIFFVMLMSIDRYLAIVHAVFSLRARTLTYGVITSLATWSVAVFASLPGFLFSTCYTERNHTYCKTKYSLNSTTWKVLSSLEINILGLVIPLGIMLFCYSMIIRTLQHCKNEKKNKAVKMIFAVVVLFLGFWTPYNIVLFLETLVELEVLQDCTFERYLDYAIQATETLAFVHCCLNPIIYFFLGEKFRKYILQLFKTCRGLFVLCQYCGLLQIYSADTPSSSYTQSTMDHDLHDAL

[5] = biological target: T3, chemokine (C-C motif) receptor 9 (CCR9); assay: flow cytometry; labelled chemokine on fixed blood leukocytes
hCCR2b = biological target: T5, hCCR2b (human, UniProt P41597 1-374); assay: cell-based or functional assay
T5 chain: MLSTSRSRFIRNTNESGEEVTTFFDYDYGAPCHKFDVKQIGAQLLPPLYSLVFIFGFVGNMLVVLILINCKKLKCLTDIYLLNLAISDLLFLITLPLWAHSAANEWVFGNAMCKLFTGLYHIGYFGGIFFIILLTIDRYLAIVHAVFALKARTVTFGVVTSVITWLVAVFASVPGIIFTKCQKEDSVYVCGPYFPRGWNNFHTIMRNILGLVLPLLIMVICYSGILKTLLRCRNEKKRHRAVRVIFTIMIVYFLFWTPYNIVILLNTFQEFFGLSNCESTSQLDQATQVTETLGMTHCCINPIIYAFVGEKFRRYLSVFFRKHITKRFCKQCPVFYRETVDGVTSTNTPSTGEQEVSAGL

[6] = biological target: T6, chemokine (C-C motif) receptor 5 (CCR5) (human, UniProt P51681 1-352); assay: cell-based or functional assay
T6 sequence (P51681 whole entry): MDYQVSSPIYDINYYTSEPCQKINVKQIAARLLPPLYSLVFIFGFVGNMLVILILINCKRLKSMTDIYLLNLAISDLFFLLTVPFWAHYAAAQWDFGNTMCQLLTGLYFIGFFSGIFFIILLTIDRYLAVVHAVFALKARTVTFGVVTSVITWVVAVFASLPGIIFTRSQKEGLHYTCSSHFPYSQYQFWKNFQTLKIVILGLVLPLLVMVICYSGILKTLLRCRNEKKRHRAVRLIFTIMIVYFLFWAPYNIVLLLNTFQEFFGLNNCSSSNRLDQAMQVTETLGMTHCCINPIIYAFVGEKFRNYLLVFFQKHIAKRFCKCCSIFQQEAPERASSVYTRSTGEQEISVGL

[7] = biological target: T7, chemokine (C-C motif) receptor 1 (CCR1) (human, UniProt P32246 1-355); assay: blood passed through chemokine-coupled column; flow cytometry before and after
T7 construct: whole, on cells
T7 sequence (looked up): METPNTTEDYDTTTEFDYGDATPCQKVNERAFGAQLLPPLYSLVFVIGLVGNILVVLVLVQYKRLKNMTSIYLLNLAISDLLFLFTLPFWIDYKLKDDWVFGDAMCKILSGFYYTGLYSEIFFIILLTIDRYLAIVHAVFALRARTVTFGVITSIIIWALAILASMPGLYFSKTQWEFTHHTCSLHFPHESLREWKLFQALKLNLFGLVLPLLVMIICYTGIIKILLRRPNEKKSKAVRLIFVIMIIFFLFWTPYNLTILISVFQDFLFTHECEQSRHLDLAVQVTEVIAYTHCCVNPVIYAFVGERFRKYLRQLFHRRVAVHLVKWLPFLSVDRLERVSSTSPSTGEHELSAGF

[8] = biological target: T6, chemokine (C-C motif) receptor 5 (CCR5); assay: as above

B1: biotinMIP-3b (CCL19): MIP-3b derivatised at Lys(78) with Biotin (ligand)
chain: GTNDAEDCCLSVTQKPIPGYIVRNFHYLLIKDGCRVPAVVFTTLRGRQLCAPPDQPWVERIIQRLQRTSAKMKRRSSX
modifications: X78 = K(Biotin), an additional C-terminal lysine; C-terminal amide
- EC50 (agonist activity, Aequorin assay) [1]: 0.011 µM

B2: biotinylated and Alexa647 Fluor labeled eotaxin (Almac Sciences) (ligand)
chain: not shown
modifications: biotinylated and Alexa647 Fluor labeled (sites not given)
- binding result [2]: binds

B3: biotinTECK (Met to Nleu substitution): TECK derivatised at the epsilon-amino side chain of Lys72 with PEG-Biotin (ligand)
chain: [pGlu]GVFEDCCLAYHYPIGWAVLRRAWTYRIQEVSGSCNLPAAIFYLPKRHRKVCGNPKSREVQRA[Nle]KLLDARNK([PEG-Biotin])VF-OH
modifications: disulfide 7-35, 8-52; reading uncertain
- EC50 (agonist activity, Aequorin assay) [3]: 0.0636 µM

B4: biotinMDC (CCL22): MDC derivatised at Lys(66) with PEG-Biotin (ligand)
chain: GPYGANMEDSVCCRDYVRYRLPLRVVKHFYWTSDSCPRPGVVLLTFRDKEICADPRVPWVKMILNK([PEG-Biotin])LSQ-NH2
modifications: disulfide 12-36, 13-52; reading uncertain
- EC50 (agonist activity, Aequorin assay) [4]: 0.0045 µM

B5: Biotinylated CCL25 (Almac Sciences) (ligand, UniProt O15444 24-97, looked up)
chain: QGVFEDCCLAYHYPIGWAVLRRAWTYRIQEVSGSCNLPAAIFYLPKRHRKVCGNPKSREVQRAMKLLDARNKVF
modifications: biotinylated (site not stated); for the flow cytometry tests also Alexa647 Fluor labeled
notes: also called biotinylated and Alexa647 Fluor labeled CCL25; CCL25-coated sepharose beads
- percent of CD4+ lymphocytes bound (Crohn's patient) [5]: ~90%
- percent of CD8+ lymphocytes bound (Crohn's patient) [5]: ~80%
- percent of monocytes bound (Crohn's patient) [5]: ~90%

B6: recombinant native MCP-2 (ligand, UniProt P80075 24-99, looked up)
chain: QPDSVSIPITCCFNVINRKIPIQRLESYTRITNIQCPKEAVIFKTKRGKEVCADPKERWVRDSMKHLDQIFQNLKP
- EC50 (partial agonist, Aequorin assay) (hCCR2b): 0.0235 µM

B7: biotinRANTES (CCL5): RANTES derivatised at Lys(67) with Biotin (ligand)
chain: SPYSSDTTPCCFAYIARPLPRAHIKEYFYTSGKCSNPAVVFVTRKNRQVCANPEKKWVREYINSLEK(Biotin)S-OH
modifications: disulfide 10-34, 11-50
notes: also called bRANTES; biotinylated RANTES
- EC50 (agonist activity, Aequorin assay) [6]: 0.0005 µM
- percent reduction of chemokine receptor-expressing cells (CCR1, 3 or 5, not told apart) [7]: ~20%
- percent reduction of chemokine receptor-expressing cells (CCR1, 3 or 5, not told apart) [8]: ~20%

Reference: patent publication US20140175018A1 (published 2014)
